According to patent EP4703382A1 (Kanglitai Biomedical (Qingdao) Co., Ltd., dated 2026):
“And” between values parts separate entries of the source, which are not always exact repeats. Equal values may be shown once. Read-outs that look alike come from different tables or passages of the source.

How the values were obtained:
[1] = target: T1, human PDL1-Fc fusion protein (human); assay: ELISA, human PDL1-Fc coated 200 ng/well, anti-His HRP
T1 construct: also called human PDL1-Fc recombinant protein

BSA = target: T2, BSA (UniProt P02769 25-607); assay: ELISA, 200 ng/well coated, anti-His HRP
T2 construct: unrelated protein of the specificity ELISA

HAS = target: T3, HAS (UniProt P02768 25-609); assay: ELISA, 200 ng/well coated, anti-His HRP
T3 construct: unrelated protein of the specificity ELISA; label read as HSA

[2] = target: T1, human PDL1-Fc fusion protein; assay: BLI (ForteBIO Octet QKe), PDL1-Fc loaded, analyte 100 nM
[3] = target: T4, recombinant protein PD-L1-His (human, UniProt Q9NZQ7 19-238); assay: competitive ELISA, PDL1-his coated, competitor PD1-Fc 50 µg/mL
T4 construct: also called PD-L1-his fusion protein; human PDL1-his protein

[4] = target: T5, human PD-L1 expressed on Raji cells (human, UniProt Q9NZQ7 19-290); assay: flow cytometry on Raji cells expressing human PD-L1, anti-His FITC
T5 construct: whole, on cells; also called Raji-PDL1; PDL1 protein expressed on Raji cells

[5] = target: T4, recombinant protein PD-L1-His; assay: competitive ELISA, PDL1-his coated, competitor PD1-Fc 50 µg/mL; remark: listed apart in the source
[6] = target: T5, human PD-L1 expressed on Raji cells; assay: flow cytometry competition on Raji-PDL1 cells, competitor PD1-Fc
[7] = target: T1, human PDL1-Fc fusion protein; assay: ELISA, human PDL1-Fc coated 200 ng/well, anti-His HRP; remark: listed apart in the source
[8] = target: T5, human PD-L1 expressed on Raji cells; assay: flow cytometry competition on Raji-PDL1 cells, competitor PD1-Fc; remark: listed apart in the source
[9] = target: T1, human PDL1-Fc fusion protein; assay: BLI (ForteBIO Octet QKe), PDL1-Fc loaded, analyte 100 nM; remark: listed apart in the source
[10] = target: T1, human PDL1-Fc fusion protein; assay: ELISA, human PDL1-Fc coated 200 ng/well, anti-His HRP; remark: listed apart in the source

T4 sequence (Q9NZQ7 19-238 limits assumed): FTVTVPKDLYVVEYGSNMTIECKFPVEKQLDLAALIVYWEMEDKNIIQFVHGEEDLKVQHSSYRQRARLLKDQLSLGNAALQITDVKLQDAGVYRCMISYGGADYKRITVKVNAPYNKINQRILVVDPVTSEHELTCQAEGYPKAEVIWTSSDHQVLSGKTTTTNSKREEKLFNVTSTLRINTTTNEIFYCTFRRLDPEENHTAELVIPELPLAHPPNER
T1 sequence (chain, as listed by the source limits assumed): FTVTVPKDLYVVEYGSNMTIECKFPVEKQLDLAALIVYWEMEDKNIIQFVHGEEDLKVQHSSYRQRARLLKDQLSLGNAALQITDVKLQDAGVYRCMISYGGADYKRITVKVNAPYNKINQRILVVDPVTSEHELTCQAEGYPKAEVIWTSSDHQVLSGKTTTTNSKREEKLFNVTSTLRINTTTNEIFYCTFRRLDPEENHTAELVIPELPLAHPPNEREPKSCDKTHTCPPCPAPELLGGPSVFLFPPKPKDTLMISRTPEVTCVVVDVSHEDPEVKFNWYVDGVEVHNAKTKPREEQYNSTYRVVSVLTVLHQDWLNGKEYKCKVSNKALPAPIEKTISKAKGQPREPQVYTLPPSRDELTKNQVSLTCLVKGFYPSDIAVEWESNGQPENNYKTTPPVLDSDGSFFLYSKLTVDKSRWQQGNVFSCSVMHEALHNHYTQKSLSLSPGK
T2 sequence (P02769 25-607 limits assumed): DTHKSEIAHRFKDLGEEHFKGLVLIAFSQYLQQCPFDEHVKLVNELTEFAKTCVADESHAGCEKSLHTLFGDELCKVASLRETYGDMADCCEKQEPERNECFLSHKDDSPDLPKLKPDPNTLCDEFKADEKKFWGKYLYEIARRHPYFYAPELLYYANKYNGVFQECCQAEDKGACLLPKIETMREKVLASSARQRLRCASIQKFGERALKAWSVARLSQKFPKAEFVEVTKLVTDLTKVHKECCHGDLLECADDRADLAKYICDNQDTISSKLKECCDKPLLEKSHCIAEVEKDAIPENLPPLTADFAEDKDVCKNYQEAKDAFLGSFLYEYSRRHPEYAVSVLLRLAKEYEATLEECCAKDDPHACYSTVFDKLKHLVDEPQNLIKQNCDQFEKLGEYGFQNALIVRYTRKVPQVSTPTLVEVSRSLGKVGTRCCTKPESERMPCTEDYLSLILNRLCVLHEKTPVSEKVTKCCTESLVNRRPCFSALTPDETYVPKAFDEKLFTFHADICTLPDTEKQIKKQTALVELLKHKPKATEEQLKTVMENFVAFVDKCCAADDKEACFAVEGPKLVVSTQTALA
T5 sequence (Q9NZQ7 19-290): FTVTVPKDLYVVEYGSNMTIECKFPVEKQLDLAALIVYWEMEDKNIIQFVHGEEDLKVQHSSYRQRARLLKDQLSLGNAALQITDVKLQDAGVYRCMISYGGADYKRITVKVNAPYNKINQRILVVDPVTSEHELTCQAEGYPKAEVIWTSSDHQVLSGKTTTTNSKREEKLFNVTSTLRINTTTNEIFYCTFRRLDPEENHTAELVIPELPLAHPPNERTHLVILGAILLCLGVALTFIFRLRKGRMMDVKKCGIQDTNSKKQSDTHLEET

EC50 [1]	binding result (BSA)	binding result (HAS)	Kd [2]	koff [2]	kon [2]	IC50 [3]	EC50 [4]	IC50 [5]	IC50 [6]	EC50 [7]	IC50 [8]	Kd [9]	koff [9]	kon [9]	EC50 [10]	Binder
0.123 µg/mL	no binding (tested: 0.2 µg)	no binding (tested: 0.2 µg)	–	–	–	–	–	–	–	–	–	–	–	–	–	PDL1-14 (VHH, Alpaca nanobody expressed in E. coli, His-tagged) VHH: QVQLQESGGGLVQPGGSLRLSCAASGIISDINMVAWYRQAPGKQRELVAKIFRGGSTYYTDFVKGRFTISRENAKNTVYLQMNSLKPDDTAVYYCNARIQIRADRDYSDYWGQGTQVTVSS
0.0661 µg/mL	no binding (tested: 0.2 µg)	no binding (tested: 0.2 µg)	–	–	–	–	–	–	–	–	–	–	–	–	–	PDL1-13 (VHH, Alpaca nanobody expressed in E. coli, His-tagged) VHH: QVQLQESGGGLVQPGGSLRLSCAASGFTFSTSFVSWVRQAPGKGLEWVSRISPGGASTSYADSVKGRFTISRDNAENTLYLQMNSLKPEDTALYYCAREIYSGRFSGFDYWGQGTQVTVSS
–	no binding (tested: 0.2 µg)	no binding (tested: 0.2 µg)	2.96 nM	0.00532 s⁻¹	1.8e+06 M⁻¹ s⁻¹	2.32 µg/mL	0.0606 µg/mL	5.8 µg/mL	0.0626 µg/mL	0.00825 µg/mL	0.477 µg/mL	3.39 nM	0.00563 s⁻¹	1.66e+06 M⁻¹ s⁻¹	0.0421 µg/mL and 3.48 nM	PDL1-1 (VHH, Alpaca nanobody expressed in E. coli, purified on HisTrap and detected with anti-His antibody; also called PD-L1-1 heavy chain single-domain antibody; P1) VHH: QVQLQESGGGLVQPGGSLTLSCAASGFTVSNSAVSWARQAPGKGLEWVSLIDSNRNTVYAQSVRGRFTISRDNVKNTVYLQMNSLKPEDTAVYYCAKGIWGSTLTGQGTQVTVSS
–	no binding (tested: 0.2 µg)	no binding (tested: 0.2 µg)	–	–	–	1.31 µg/mL	0.073 µg/mL	–	0.0406 µg/mL	0.0128 µg/mL	–	–	–	–	–	PDL1-3 (VHH, Alpaca nanobody expressed in E. coli, His-tagged) VHH: QVQLQESGGGLVQPGGSLRLSCAGSGSIFRITPVAWYRQAPEKQRELVAVITDNGSTDYGDFVKGRFTISRDNAKNTVYLQMNSLKPEDTAVYYCNSRARPVRWTWGQGTQVTVSS
